# System: MS2 coat protein
# Experiment: apparent KD of MS2 coat protein; higher = weaker reporter binding
# Settings: Eterna round: R107; input ligand: arginine 13.2 mM
# Method in brief: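 Illumina sequencing clusters served as templates for on-chip transcription of the designed RNA switches. SNAP-549-labelled MS2 coat protein was then titrated in twofold steps from 0.7 or 1.5 nM to 3 µM, allowing 0.8–1.5 h per step at first and 10–20 min per step later. The buffer held 100 mM Tris-HCl pH 7.5, 80 mM KCl and 4 mM MgCl2, without or with constant ligand. Apparent KD is the median per design of normalised cluster binding-curve fits.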
row,Sequence,apparent KD of MS2 coat protein [nM]
1,AAUAAGAUGAGGAUCACCCAUCUAAAAGAUACCAGAGUGAUGAUCCUCCCUUGGCAGCUUAACGCUGAUUGAUUACAAUCAGCGA,21.7
2,AGAUUCGACACGGCCGCCACUCGUGGUGGAUUACCUAGUGUCGAACAUGAGGAUCACCCAUGUACGAGGACCGGGUGUUGAGUCU [XTryp B #18],40.5
3,UCACAUGAGGAUCACCCAUGUACAGGCGAUACCAGCCGUACAUUGGGCCCUUGGCAGCGCACCGAGACCUUUAUAAGCACCUCGG [Zaoranorre],67
4,ACACAUGAGGAUCACCCAUGUUCAAUAGAUACCAGUGAUACGGUGCACCCUUGGCAGCUGUUGCUGAGUGAUGGUUCCCUCGGUA [#23 SameState-TheophyllineA],28.1
5,ACGAUAGGACCUGAGGAUCACCCAGGUGAUACCAGCCUGGAAACAGGCCCUUGGCAGCACCAAUACUCCAAUAACCUAUCGAAUA [TheoAX 11 #MicroSwitchBubble #AlternativeMS2],96.8
6,UUAUAAGUACCGGUCCUCAGAUCCUCAUGACGAGGACCGGUACGGCCGCCACUCGAAACAUGAGGAUCACCCAUGUAAUAAUAAC [Brourdmod04],23.3
7,UGUAUGGACUGAAGGAGCGCCUCAAACAUGAGGAUCACCCAUGUGGACAAAUAAGUCCUUGGGCAGGUAGGUCGCAGUCCAUACU [ArgBX 7 #StaticStem #MS2Late],73.5
8,GGAUAGGACACGGCCGCCACUGCCUAGGAUACUAGAAACAUUUCCUCACAUGAGGAUCACCCAUGUAGGACCGGGUGUCCUAUCG,74.9
9,CUGCCACAGAUAGAUACCAGAGGCGUGCAAGCUACAGCUCACAUGAGGAUCACCCAUGUUCUCCCUUGGCAGCUACGGUGUAAGG [theeternabot_exclusion_MS2_Theo_B_26],17.1
10,GUAUCGACAUGAGGAUCACCCAUGUCCGAAGGAGCGUUGGGAACAACAGGUAGGUCGCGGACAUAGAGCAUCCGGAAACGGAUGC [EAA NP+V+V2 #1],10.1
11,CCAUUGAUGACGGCCGCCACUGUCUACAUGAGGAUCACCCAUGUAUAGCAGGGUGGACCUAUGGACAGGACCGGGUCACUUGUCC [Tryp B Ex t7],10.4
12,UCGCUCUGGGUGAGAUCCGGAGAUAUGGAAGGAGCGCUGAUUCCAGCAGGUAGGUCGCCAACGGACAUGAGGAUCACCCAUGUAC [Same State - Arginine A (Freestyle 11)],36.6
13,CGCGGUUGAGAUGGGCCUUUGAUAAGUCUGCGAGGACCGGUACGGCCGCCACUCGAGGACAUGAGGAUCACCCAUGUACUUCGCG [Atriera],51.1
14,UCGGCAGUGAACGAUACCAGCGUCACGUGGCCGGUGGUCACAUGAGGAUCACCCAUGUAACGCCCUUGGCAGCGUGCGCGUACCG [Zaancebi],15.1
15,UUAAGAGGCUAUCCACUUUGAUUUUGUGAUACCAGAAUAAUUUUAUUCCCUUGGCAGCAUGACAUGAGGAUCACCCAUGUGUCUU [SSTheo A #3],31.4
16,AUGUCUGAGUCGGCCGCCACUGGGUGUGGGUGAUGCCGGAUGUUGUACAUGAGGAUCACCCAUGUCAGGACCGGGAUUCCCACGA [Receve],6.2
17,CAUCCUAGUACAUGAGGAUCACCCAUGUAUCGAGGACCGGUACGGCCGCCACUCGAAUGGCGGAUCGUUAAUCCUCUAGGAUGGA [Tryp A Ex 4a],11.7
18,UCUGGUAUGACGGCCGCCACUAGAUCGUGAGAAGCCUGCAUACAUGAGGAUCACCCAUGUCUCACUAGGACCGGGUCAUUCCAAU [theeternabot_sameState_MS2_Trp_B_5],53.8

row,Sequence,apparent KD of MS2 coat protein [nM]
1,GAGGAAACUCACAUGAGGAUCACCCAUGUACGAGGACCGGUACGGCCGCCACUCGAAACCAUGGGCGGUAGUACGUGGAAGCUUG [Design 2 MOD 2],21.1
2,GGAUAGGACAGAAGGAGCGACGUGAGGCGAAAGCCAAUCCUUCAACAUGAGGAUCACCCAUGUCAGGUAGGUCGCUGUCCUAUCG [ArgBX 5],19.5
3,AGUACUCGAACGGAUACCAGCCGGACAUGAGGAUCACCCAUGUCCUACCAUGGUUCGGUUGGCCCUUGGCAGCCGUUCGUGUACA [Omei Theo B SS A v3],128
4,AAAGACAUGAGGAUCACCCAUGUGGGUGGGCGAGGACCGGUACGGCCGCCACUCGUGGGCGGGAAGGGAUAUUUAAUAAGGAAGA [same state--tryptophan A 1st shot],50
5,UGUAUGUGAUCUGAUACCAGAGUUGAUAAUCUGAGGAUCACCCUGGUAAGGCGAAAGCCACUCCCUUGGCAGCAGAUCGCAUACU,106
6,GUAGCGACGACGGCCGCCACUCACAGGUGAGGGUAGACCAACCUUCACAUGAGGAUCACCCAUGUGAGGACCGGGUUGUCGGUAC [#11 Exclusion Tryptophan B],50.9
7,GAUGAAGUAACUGAUACCAGUGUACUGACAUGAGGAUCACCCAUGUUGGGUUUUGUUGUACACCCUUGGCAGCAGAAUCUUUAUC [AstrosExyTheB#5],33.8
8,GUCCUAGCGAGCACUCGCUAGGACGCGGAUACCAGCGAGGUCCAUCGCCCUUGGCAGCCGAACAUGAGGAUCACCCAUGUCGGUA [#1 Same State - Theophylline A Attempt #17 (HarryS)],12.6
9,AUACAUGAGGAUCACCCAUGUCCUCGUGAUCGAGGACCGGUACGGCCGCCACUCGGUCCUCGCGAGGAGGAGUCAAAGACUCCAA [Omei Trp A SS A v4],38.5
10,GAUGAACUAUUUGAUACCAGACCACAUGAGGAUCACCCAUGUGAGUUUCGUCCUUAGCCGGUCCCUUGGCAGCAAAUAGUUUAUC [#27 Exclusion-TheophyllineB],19.3
11,CGCUACAUAGCGGCCGCCACUGUCAUGGCUACGAUAGGUCACUCGUACAUGAGGAUCACCCAUGUCAGGACCGGGCUAUCCUCGC [theeternabot_exclusion_MS2_Trp_B_20],64.9
12,GGAUAGGACAGAAGGAGCGACAUGAGGAUCACCCAUGUCUACCACGUCGAAAGACGCUCAUGUCAGGUAGGUCGCUGUCCUAUCG [ArgXB 9 #StaticStem #MS2LeftOffAptamer],101
13,"GGCUAGGCUAGCGAUACCAGCAACCAACAUGAUCUGAGGAUCACCCAGGUAGUUGGACGUUGCCCUUGGCAGCGCUAGCCUAGCC [SSThB NP+V+V2 #12 Diff Apt, Same Structure]",15.4
14,ACAUUAGCCACGGCCGCCACUGCCUUAUGAUUAUAAGGAUUAAUGAACAUGAGGAUCACCCAUGUCAGGACCGGGUGCCUACCAU [SSTryp B #5],20.1
15,GUAGCGACGGCGGCCGCCACUCACAGGUGAGGGUAGACCAACCUUCACAUGAGGAUCACCCAUGUGAGGACCGGGCUGUCGCUAC [#13 Exclusion Tryptophan B],36.3
16,"ACAUGAGGAUCACCCAUGUACAUGAGGGAAGGAGCGGUACAUGUGCCAGGUAGGUCGCCCAUGAGCAUCAGCCAUGUACAUCAGC [l,ommullin]",42.1
17,AGUUACAUGAGGAUCACCCAUGUCCGGUUGCGAGGACCGGUACGGCCGCCACUCGGGUACAUCCCAGAAAAUACUGAAUGCCUGC [theeternabot_sameState_MS2_Trp_A_15],41.8
